Experimental data from patent US20170143843A1 (Genentech, published 2017).

What was measured:
human factor D [1] = molecular target: T1, human factor D (human, UniProt P00746 26-253); experiment: SPR Biacore T200, Fab captured by anti-huFab, human fD injected, 25 C
T1 construct: also called fD
Description: Antibody Fab fragments were immobilized on a Series S CM5 sensor chip using the anti-huFab capture kit (GE healthcare Cat. #28-9583-25) following a protocol described by the manufacturer. Kinetics of binding were calculated from sensorgrams recorded for injection of 60 μL aliquots of solutions of human factor D varied in concentration from 0.39 nM to 25 nM in 2-fold increments. The flow rate was 30 μL/minute, the running buffer was HBS-P+, the temperature of analysis was 25° C., real-time reference cell subtraction was employed, and dissociation following factor D injection was followed for 10 minutes. After subtraction of the sensorgram observed for injection of running buffer, data were analyzed according to a 1:1 model using BiaEval software v4.1 (GE Healthcare) to extract the kinetics and affinity constants.

human factor D [2] = molecular target: T1, human factor D; experiment: SPR total binding to fD over time; Fab 100 mg/mL in PBS, 37 C, 10 weeks (FIG. 2B)
human factor D [3] = molecular target: T1, human factor D; experiment: SPR total binding to fD over time; Fab 10 mg/mL in pH 5.5 buffer (FIG. 2A), one month
human factor D [4] = molecular target: T1, human factor D; experiment: SPR, captured Fab, fD injected

T1 sequence (P00746 26-253 limits assumed): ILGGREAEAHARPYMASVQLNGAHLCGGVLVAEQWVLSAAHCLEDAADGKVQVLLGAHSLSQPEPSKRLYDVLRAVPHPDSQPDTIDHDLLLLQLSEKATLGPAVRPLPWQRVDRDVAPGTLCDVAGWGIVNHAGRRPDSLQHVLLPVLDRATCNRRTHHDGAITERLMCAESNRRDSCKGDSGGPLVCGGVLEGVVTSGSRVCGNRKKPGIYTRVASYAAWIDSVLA

B1: AFD.v6 (TM; VL-D30E:D31S VH-D62E) (Fab, V domains shown)
VH: EVQLVQSGPELKKPGASVKVSCKASGYTFTNYGMNWVRQAPGQGLEWMGWINTYTGETTYAEDFKGRFVFSLDTSVSTAYLQISSLKAEDTAVYYCEREGGVNNWGQGTLVTVSS
VL: DIQVTQSPSSLSASVGDRVTITCITSTDIESDMNWYQQKPGKVPKLLISGGNTLRPGVPSRFSGSGSGTDFTLTISSLQPEDVATYYCLQSDSLPYTFGQGTKVEIKR
notes: Fab variant of aFD.WT; also called TM (AFD.v6)
Kd (human factor D [1]): ≤ 0.01 nM
loss in binding (human factor D [2]): ~20%
loss in binding (human factor D [3]): ~40%

B2: AFD.v15 (SIESD.N103S.D92E; VL-D28S:D30E:D31S:D92E VH-D62E:N103S) (Fab, V domains shown)
VH: EVQLVQSGPELKKPGASVKVSCKASGYTFTNYGMNWVRQAPGQGLEWMGWINTYTGETTYAEDFKGRFVFSLDTSVSTAYLQISSLKAEDTAVYYCEREGGVSNWGQGTLVTVSS
VL: DIQVTQSPSSLSASVGDRVTITCITSTSIESDMNWYQQKPGKVPKLLISGGNTLRPGVPSRFSGSGSGTDFTLTISSLQPEDVATYYCLQSESLPYTFGQGTKVEIKR
notes: Fab variant of aFD.WT
fold decrease in affinity against SIESD.N103S (AFD.v14) (human factor D [4]): 4 fold
Kd (human factor D [1]): 0.102 nM
